Laboratory results published in US8119354B2, “Cell-free assay product and method of use thereof for measuring activity of frizzled receptors” (Universitaet Konstanz, priority 2007, dated 2012).
One block for each molecule: values may come before it.

What was measured:
hFz1 = target: T1, hFz1 (Homo sapiens, UniProt Q9UP38); assay: Europium-GTP assay of G protein (Go) activation by hFz1 membranes; type: biochemical; settings: for relative stimulation among the Wnt ligands tested: detergent-solubilized hFz1, GTP incorporation into Go; for activation of the trimeric Go protein (GTP incorporation into Go): detergent-solubilized hFz1-expressing membrane fractions, not control membranes
T1 construct: made in house; host or cells: Escherichia coli (pMAL-p2), membrane fraction
Procedure: The coding sequence of hFz1 was cloned in-frame into the pMAL-p2 plasmid (New England BioLabs) allowing expression of the protein as an N-terminal fusion with maltose binding protein (MBP). The natural signal sequence of MBP directs the fusion protein through the cytoplasmic membrane. Expression conditions were optimized to allow slow expression to maximize correct hFz1 folding: Expression was performed at 18° C. for 18 h, and in the presence of glucose to minimize the expression of endogenous MBP protein.
Bacteria were harvested by centrifugation, resuspended in PBS (phosphate-buffered saline) and disrupted by French press. The resultant suspension was cleared from the cell debris by low-speed centrifugation, followed by ultracentrifugation to pellet the membranes expressing MBP-hFz1. The membranes were resuspended in PBS supplemented with the protease-inhibitor cocktail (Roche) and frozen in aliquots at −80° C. Control bacteria were transformed with the empty pMAL-p2 vector, induced with IPTG, grown and harvested in parallel with hFz1-transformed bacteria.
HFz1 coding sequence was subcloned into pIRES2-DsRed-Express plasmid (Invitrogen). CHO cells were transiently transfected with lipofectamine following manufacturer's protocol. Transfection efficiency was estimated to be >50%. Two days post-transfection, transfected cells in parallel with control non-transfected cells of a similar cell density were washed, detached with EDTA, pelleted, washed with PBS, and disrupted in a glass-rod homogenizer in a hypotonic buffer (10 mM Hepes pH 7.5). Membrane fraction was prepared and stored as above.
Europium-GTP assay of G protein activation using a time-resolved fluorescence assay was performed. In one well of a 96-well AcroWell plate, 100 μl were mixed containing 4-10 μg/ml membrane protein from the hFz1 expression in bacteria or in CHO, 50 mM Hepes, pH 7.4, 1 mM MgCl2, 50 mM NaCl and 1 mg/ml saponin. Bacterial membranes expressing hFz1 or bacterial control membranes were used at 0.1 mg/ml protein concentration for membrane protein preparation. CHO membranes expressing hFz1 or CHO control membranes were used at 0.01 mg/ml protein concentration. Varying amounts of the following were added: bovine brain Go (Calbiochem), Wnt3a (R&Dsystems), Wnt3a-conditioned or control L-cell medium. Extra GDP was omitted in most experiments. 30 min after incubating this mixture at room temperature on a shaker (100 rpm), Europium-GTP was added, and incubation was continued for 30 more min. Afterwards the content of the wells was filtered and washed using the Multiscreen Vacuum Manifold (Millipore). Amounts of Europium-GTP retained by the membranes were then measured using the Perkin Elmer Victor3 Multilabel Plate Reader.

[1] = Solubility of purified Wnt3A after heparin chromatography; type: physicochemical; settings: 1×PBS, 1M NaCl, 1% CHAPS, pH7.3
Procedure: To purify Wnt protein as an example for a typical Fz ligand LWnt3A or LWnt5A cell lines producing and secreting Wnt proteins were used. By growing the cells adherent for 4 days from a 1:10 to 1:20 split high amounts of Wnt-3A were obtained. The medium was DMEM plus 10% FBS, omitting the serum lowers the levels of Wnt protein in the medium. The Wnt containing medium was filtered, detergent was added (Triton X-100 or CHAPS) to a final concentration of 1%, and the medium was refiltered just before applying the material to Blue Sepharose.
Purification by Blue Sepharose fractionation yielded pure Wnt protein, wherein Wnt3A conditioned medium was applied on a Blue Sepharose HP column. Wnt elution from Blue Sepharose was done in a single step from 150 mM to 1.5 M KCl. Approximately, half of the Wnt protein eluted immediately with the salt and the majority of contaminants, but the other half was retained and eluted later in a second pool. This second pool contained much less total protein and consequently contained a higher proportion of Wnt.
Pooled eluted Wnt fractions from Blue Sepharose purification were concentrated by […] to 5 or 10 ml volume using Centricon or Amicon Ultra 30 ultrafiltration device (Amicon) depending on size of […] column. […]

hFz7 = target: T2, hFz7 (Homo sapiens, UniProt O75084); assay: in vitro Go activation assay with bacterially expressed hFz7; type: biochemical; settings: detergent-solubilized bacterially expressed hFz7
T2 construct: made in house
Description: (§1) The results obtained with three human Frizzled receptors (hFz1, hFz6, hFz7) and four Wnt ligands (Wnt3a, Wnt5a, Wnt5b, and Wnt7a) allow to compose a table of pair-wise Wnt-Frizzled activations using Go stimulation as the read-out (FIG. 5C).
(§2) Detergent-solubilized hFz6 and Fz7 stimulated GTP incorporation into Go in the presence of different Wnt ligands. Data are presented in FIG. 5C as summary of the capacity of the tested Wnt ligands to stimulate the tested Frizzled receptors to activate Go in vitro. […] Go activation by the Wnt-Frizzled pairs is denoted (in the order of the decreasing activation capacity) as “+++”, “++”, “+”, “+/−”, and “−” using as criteria the lowest Go-activating Wnt concentration as well as the maximal Go activation level achieved by any Wnt concentration.
(§3) Europium-GTP assay of G protein activation using a time-resolved fluorescence assay was performed. In one well of a 96-well AcroWell plate, 100 μl were mixed containing 4-10 μg/ml membrane protein from the hFz1 expression in bacteria or in CHO, 50 mM Hepes, pH 7.4, 1 mM MgCl2, 50 mM NaCl and 1 mg/ml saponin. Bacterial membranes expressing hFz1 or bacterial control membranes were used at 0.1 mg/ml protein concentration for membrane protein preparation. […] Amounts of Europium-GTP retained by the membranes were then measured using the Perkin Elmer Victor3 Multilabel Plate Reader.

hFz6 = target: T3, hFz6 (Homo sapiens, UniProt O60353); assay: in vitro Go activation assay with bacterially expressed hFz6; type: biochemical; settings: detergent-solubilized bacterially expressed hFz6
T3 construct: made in house
Description: as §1, §2, §3

T1 sequence (Q9UP38 70-647): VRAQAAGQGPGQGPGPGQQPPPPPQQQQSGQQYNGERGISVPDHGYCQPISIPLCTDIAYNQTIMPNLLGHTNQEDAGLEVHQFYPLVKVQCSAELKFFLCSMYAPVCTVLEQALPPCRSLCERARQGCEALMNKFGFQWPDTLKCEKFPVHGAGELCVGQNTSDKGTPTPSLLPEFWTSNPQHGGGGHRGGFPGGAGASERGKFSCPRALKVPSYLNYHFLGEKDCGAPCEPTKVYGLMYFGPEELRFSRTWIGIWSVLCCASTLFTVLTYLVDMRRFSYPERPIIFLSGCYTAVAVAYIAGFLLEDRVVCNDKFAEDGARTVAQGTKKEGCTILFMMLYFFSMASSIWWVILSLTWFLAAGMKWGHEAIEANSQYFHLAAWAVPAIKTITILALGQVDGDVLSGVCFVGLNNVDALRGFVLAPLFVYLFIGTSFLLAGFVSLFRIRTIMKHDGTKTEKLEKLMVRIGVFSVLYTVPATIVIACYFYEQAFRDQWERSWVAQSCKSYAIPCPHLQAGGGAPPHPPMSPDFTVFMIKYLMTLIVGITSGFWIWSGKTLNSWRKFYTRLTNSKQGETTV

Molecule: Wnt3a
- stimulation of hFz1 activity towards Go (hFz1; E. coli-produced hFZ1 membranes, 0.3 μg/ml purified Wnt3a): stimulated
- relative stimulation among the Wnt ligands tested (hFz1): most active
- solubility and activity maintained at a maximum concentration [1]: ≤ 100 µg/mL

B1: Wnt5a: Wnt ligand (secreted Wnt family protein), frizzled receptor agonist (protein, UniProt P41221 62-380, looked up)
Protein Wnt-5a: IIGAQPLCSQLAGLSQGQKKLCHLYQDHMQYIGEGAKTGIKECQYQFRHRRWNCSTVDNTSVFGRVMQIGSRETAFTYAVSAAGVVNAMSRACREGELSTCGCSRAARPKDLPRDWLWGGCGDNIDYGYRFAKEFVDARERERIHAKGSYESARILMNLHNNEAGRRTVYNLADVACKCHGVSGSCSLKTCWLQLADFRKVGDALKEKYDSAAAMRLNSRGKLVQVNSRFNSPTTQDLVYIDPSPDYCVRNESTGSLGTQGRLCNKTSEGMDGCELMCCGRGYDQFKTVQTERCHCKFHWCCYVKCKKCTEIVDQFVCK
- activation of the trimeric Go protein (GTP incorporation into Go) (hFz1): concentration-dependent activation
- relative stimulation among the Wnt ligands tested (hFz1): most active
- Go activation by hFz7 upon addition of ligand (hFz7): mostly stimulated

Now from value to molecule:

- stimulation of hFz1 activity towards Go (hFz1; E. coli produced hFz1 membranes, Wnt5a mimetic peptide): can be stimulated
Molecule: fMDGCEL [reference compound]

- activation of the trimeric Go protein (GTP incorporation into Go) (hFz1): concentration-dependent activation
- relative stimulation among the Wnt ligands tested (hFz1): more modest stimulation
B2: Wnt5b: Wnt ligand (secreted Wnt family protein), frizzled receptor agonist (protein, UniProt Q9H1J7 18-359, looked up)
Protein Wnt-5b: QLLTDANSWWSLALNPVQRPEMFIIGAQPVCSQLPGLSPGQRKLCQLYQEHMAYIGEGAKTGIKECQHQFRQRRWNCSTADNASVFGRVMQIGSRETAFTHAVSAAGVVNAISRACREGELSTCGCSRTARPKDLPRDWLWGGCGDNVEYGYRFAKEFVDAREREKNFAKGSEEQGRVLMNLQNNEAGRRAVYKMADVACKCHGVSGSCSLKTCWLQLAEFRKVGDRLKEKYDSAAAMRVTRKGRLELVNSRFTQPTPEDLVYVDPSPDYCLRNESTGSLGTQGRLCNKTSEGMDGCELMCCGRGYNQFKSVQVERCHCKFHWCCFVRCKKCTEIVDQYICK

- activation of the trimeric Go protein (GTP incorporation into Go) (hFz1): concentration-dependent activation
- relative stimulation among the Wnt ligands tested (hFz1): more modest stimulation
- Go activation by hFz6 upon addition of ligand (hFz6): activated Go
B3: Wnt7a: Wnt ligand (secreted Wnt family protein), frizzled receptor agonist (protein, UniProt O00755 32-349, looked up)
Protein Wnt-7a: LGASIICNKIPGLAPRQRAICQSRPDAIIVIGEGSQMGLDECQFQFRNGRWNCSALGERTVFGKELKVGSREAAFTYAIIAAGVAHAITAACTQGNLSDCGCDKEKQGQYHRDEGWKWGGCSADIRYGIGFAKVFVDAREIKQNARTLMNLHNNEAGRKILEENMKLECKCHGVSGSCTTKTCWTTLPQFRELGYVLKDKYNEAVHVEPVRASRNKRPTFLKIKKPLSYRKPMDTDLVYIEKSPNYCEEDPVTGSVGTQGRACNKTAPQASGCDLMCCGRGYNTHQYARVWQCNCKFHWCCYVKCNTCSERTEMYTCK
